Reference: patent US7407776, “Engineered zinc finger proteins for regulation of gene expression” (Sangamo Biosciences, Inc.)

Biological target: HA-ZFP-5475-KOX1 (Artificial)
Assay: ChIP with anti-HA in HEK293 cells, relative to GAPDH control; GFP-KOX and non-specific ZFP TF gave no significant enrichment
Description: FIG. 2A is a graph depicting repression of CHK2 expression by ZFP-5475 in cultured cells. Black bars show mRNA levels upon administration of 250 ng of plasmid. Gray bars shown mRNA levels upon administration of 62.5 ng of plasmid and the white bars show mRNA levels upon administration of 15 ng of plasmid. HEK293 cells transfected with the plasmids indicated were assayed for CHK2 mRNA by quantitative RT-PCR (TaqMan) after 72 hrs. The CHK2 mRNA levels were normalized relative to an internal control of GAPDH mRNA, and are expressed as this ratio. Charts represent data from a minimum of two independent experiments, with means and standard deviations shown. Transfection efficiency was assessed in each independent experiment via the use of a GFP expression plasmid control, in all experiments an apparent efficiency of 80-90% GFP positive cells was observed. FIG. 2B is a graph depicting binding of ZFP-5475 to its intended target site within the CHK2 promoter in vivo. […] Enrichment was quantified by RT-PCR Results are expressed as the fold-increase of the ratio to the GAPDH control relative to the results for non-transfected cells, the value of which is arbitrarily set to 1. The same samples were analyzed with primers specific for the p16 locus as a second internal control (open bars). […]

B1: CHK2 promoter ZFP-5475 target site (dsDNA)
DNA 1: ACCCGGGTTCCCCTCGGG
DNA 2: CCCGAGGGGAACCCGGGT
With B1 the binding signal was about 65 fold enrichment.
